Earlier results on one substance are cited in paper PMC4070987.

As a reminder, the Kd is the free concentration of one partner at which half of the binding sites on the other are occupied at equilibrium, for simple one-to-one binding.

The data set concerns the target alkaline protease inhibitor (Pseudomonas aeruginosa) (UniProt Q03026).
Chain of UniProt Q03026 (Q03026 27-131): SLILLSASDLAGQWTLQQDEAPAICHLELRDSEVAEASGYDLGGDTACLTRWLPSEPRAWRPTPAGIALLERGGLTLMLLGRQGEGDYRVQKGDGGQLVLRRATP

For the substance “alkaline protease (AP) (from UniProt Q03023)”, the Kd was 4 pM.
